To fix the notation:
B1: SRP1848-F04 (antibody, V domains shown)
VH: EVQLVESGGGLVQPGGSLRLSCAASGFNISNYSIHWVRQAPGKGLEWVGEIYPIDGITDYADSVKGRFTISADTSKNTAYLQMNSLRAEDTAVYYCARGSWFWRSGYGYYLDYWGQGTLVTVSS
VL: not shown
B2: SRP1848-C04 (antibody, V domains shown)
VH: EVQLVESGGGLVQPGGSLRLSCAASGFNIRHYSIHWVRQAPGKGLEWVGEIYPGPGNTDYADSVKGRFTISADTSKNTAYLQMNSLRAEDTAVYYCARGSLSWRAGYGYYLDYWGQGTLVTVSS
VL: not shown
B3: SRP1848-A09 (antibody, V domains shown)
VH: EVQLVESGGGLVQPGGSLRLSCAASGFNIRKQSIHWVRQAPGKGLEWVGSIFPNDGTTDYADSVKGRFTISADTSKNTAYLQVNSLRAEDTAVYYCARGSWFWRSGYGYFLEYWGQGTLVTVSS
VL: not shown
B4: SRP1848-B07 (antibody, V domains shown)
VH: EVQLVESGGGLVQPGGSLRLSCAASGFNISRFYIHWVRQAPGKGLEWVGGISPYDGFTDYADSVKGRFTISADTSKNTAYLQMNSLRAEDTAVYYCARGSWSWPAGYGYYQDYWGQGTLVTVSS
VL: not shown
B5: SRP1848-C03 (antibody, V domains shown)
VH: EVQLVESGGGLVQPGGSLRLSCAASGFNIGVYSIHWVRQAPGKGLEWVGEIYPIDGNTDYADSVKGRFTISADTSKNTAYLQMNSLRAEDTAVYYCARGSWAWRSGYSYYLDYWGQGTLVTVSS
VL: not shown
B6: SRP1848-B05 (antibody, V domains shown)
VH: EVQLVESGGGLVQPGGSLRLSCAASGFNISNYYIHWVRQAPGKGLEWVGGISPIDGYTDYADSMKGRFTISADTSKNTAYLQMSSLRAEDTAVYYCARGSWFWQSGYGYYLDYWGQGTLVTVSS
VL: not shown
B7: SRP1848-C01 (antibody, V domains shown)
VH: EVQLVESGGGLVQPGGSLRLSCAASGFNIGNSYIHWVRQAPGKGLEWVGGVTPNDGYTDYADSVKGRFTISADTSKNTTYLQMNSLRAEDTAVYYCARGSWFWRAGYGYYLDYWGQGALVTVSS
VL: not shown
B8: SRP1848-A04 (antibody, V domains shown)
VH: EVQLVESGGGLVQPGGSLRLSCAASGFNIDQSSIHWVRQAPGKGLEWVGVIYPVDGTTDYADSVKGRFTISADTSKNTAYLQMNSLRAEDTAVYYCARGAWSWRSGYGYYIDYWGQGTLVTVSS
VL: not shown
B9: SRP1848-B11 (antibody, V domains shown)
VH: EVQLVESGGGLVQPGGSLRLSCAASGFNIGNNSIHWVRQAPGKGLEWVGDISPIDGFTDYADSVKGRFTISADTSKNTAYLQMNSLRAEDTAVYYCARGSWSWRAGYGYYLDYWGQGTLVTVSS
VL: not shown
B10: SRP1848-B01 (antibody, V domains shown)
VH: EVQLVESGGGLVQPGGSLRLSCAASGFNIRNYSIHWVRQAPGKGLEWVGEIYPVDGITDYADSVKGRFTISADTSKNTAYLQMNSLRAEDTAVYYCARGFWSWPSGYSYFLDYWGQGTLVTVSS
VL: not shown
B11: SRP1848-B03 (antibody, V domains shown)
VH: EVQLVESGGGLVQPGGSLRLSCAASGFNISMKYIHWVRQAPGKGLEWVGGITPIDGMTDYADSVKGRFTISADTSKNTAYLQMNSLRAEDTAVYYCARGSWSWPSGYSYYLDYWGQGTLVTVSS
VL: not shown
B12: SRP1848-B04 (antibody, V domains shown)
VH: EVQLVESGGGLVQPGGSLRLSCAASSFNISNHSIHWVRQAPGKGLEWVGEIYPVDGITDYADSVKGRFTISADTSKNTAYLQMNSLRAEDTAVYYCARGRYSWRAGYSYYLDYWGQGTLVTVSS
VL: not shown
B13: SRP1848-A10 (antibody, V domains shown)
VH: EVQLVESGGGLVQPGGSLRLSCAASGFNIRKYSIHWARQAPGKGLEWVGDIFPIDDITDYADSVKGRFTISADTSKNTAYLQMNSLRAEDTAVYYCARGSWSWPSGHSYYLDYWGQGTLVTVSS
VL: not shown
B14: SRP1848-B09 (antibody, V domains shown)
VH: EVQLVESGGGLVQPGGSLRLSCAAGGFNITNYYIHWVRQAPGKGLEWVGGITPVDGYTDYADRVKGRFTISADTSKNTAYLQMNSLRAEDTAVYYCARGAWSWRSGYGYYMDYWGQGTLVTVSS
VL: not shown
B15: SRP1848-B10 (antibody, V domains shown)
VH: EVQLVESGGGLVQPGGSLRLSCAASGFNTTTKSIHWVRQAPGKGLEWVGEIYPRDGITDYADSVKGRFTISADTSKNTAYLQMNSLRAEDTAVYYCARGGWHWRSGYSYYLDYWGQGTLVTVSS
VL: not shown
B16: SRP1848-B06 (antibody, V domains shown)
VH: EVQLVESGGGLVQPGGSLRLSCAASGFNISNYYIHWVRQAPGKGLEWVGGITPIDGYTDYADSVKGRFTISADTSKNTAYLQMNSLRAEDTAVYYCARGFWSWPSGYGYYQDYWGQGTLVTVSS
VL: not shown
B17: SRP1848-A07 (antibody, V domains shown)
VH: EVQLVESGGGLVQPGGSLRLSCAASGFNIGYHSIHWVRQAPGKGLEWVGEIFPVDGTTDYADSVKGRFTISADTSKNTAYLHMNSLRAEDTAVYYCARGFWAWRSGYGYYLDYWGQGTLVTVSS
VL: not shown
B18: SRP1848-C05 (antibody, V domains shown)
VH: EVQLVESGGGLVQPGGSLRLSCAASGFNIRKYSIHWVRQAPGKGLEWVGDIFPIDGINDYADSVKGRFTISADTSKNTAYLQMNSLRAEDTAVYYCARGSWSWKAGYGYYLDYWGQGTLVTVSS
VL: not shown
B19: SRP1848-C07 (antibody, V domains shown)
VH: EVQLVESGGGLVQPGGSLRLSCAASGFNIRKYSIHWVRQAPGKGLEWVGDIFPIDGITDYADSMKGRFTISADTSKNTAYLQMNSLRAEDTAVYYCARGSWSWPAGYGYYQDYWGQGTLVTVSS
VL: not shown
B20: SRP1848-A08 (antibody, V domains shown)
VH: EVQLVESGGGLVQPGGSLRLSCAASGSNIRKHSIHWVRQAPGKGLEWVGSIYPNDGTTDYADSVKGRFTISADTSKNTAYLQMNSLRAEDTAVYYCARGSWFWRAGYGYYLDYWGQGTLVTVSS
VL: not shown
B21: SRP1848-A06 (antibody, V domains shown)
VH: EVQLVESGGGLVQPGGSLRLSCAASGFNIGNSYIHWVRQAPGKGLEWVGGITPIDGNTDYADSVKGRFTISADTSKNTAYLQMNSLRAEDTAVYYCARGAWSWRSGYGYYIDYWGQGTLVTVSS
VL: not shown
B22: SRP1848-A01 (antibody, V domains shown)
VH: EVQLVESGGGLVQPGGSLRLSCAASGFNITRYSIHWVRQAPGKGLEWVAGILPESGGTSYADSVKGRFTISADTSKNTAYLQMNSLRAEDTAVYYCARHIYPWDWFSNYVLDYWGQGTLVTVSS
VL: not shown

The experiment deals with human folate receptor alpha (hFOLR1) (human, UniProt P15328 25-234). Put plainly: cell-based or functional assay.
Chain of human folate receptor alpha (hFOLR1) (P15328 25-234 limits assumed): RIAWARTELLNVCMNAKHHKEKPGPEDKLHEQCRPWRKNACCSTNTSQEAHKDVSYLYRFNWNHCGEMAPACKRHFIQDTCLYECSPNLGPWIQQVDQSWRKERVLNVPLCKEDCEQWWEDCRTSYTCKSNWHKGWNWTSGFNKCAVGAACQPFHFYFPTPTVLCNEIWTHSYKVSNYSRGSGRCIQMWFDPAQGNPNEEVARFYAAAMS
On to B1, for which the “Igrov 2° antibody cell killing EC50” value came to 0.015 nM, the “Igrov 2° antibody cell killing Span” value came to 73%, the “KB 2° antibody cell killing EC50” value is 0.096 nM and the “KB 2° antibody cell killing Span” value was 93%.

As to B2, the “Igrov 2° antibody cell killing EC50” value was found to be 0.016 nM, the “Igrov 2° antibody cell killing Span” value came to 68%, the “KB 2° antibody cell killing EC50” value turned out to be 0.006 nM and the “KB 2° antibody cell killing Span” value worked out at 94%.

Take B3: the “Igrov 2° antibody cell killing EC50” value was 0.026 nM, the “Igrov 2° antibody cell killing Span” value was found to be 71% and the “KB 2° antibody cell killing Span” value stood at 93%.

Turning to B4, the “Igrov 2° antibody cell killing EC50” value worked out at 0.038 nM, the “Igrov 2° antibody cell killing Span” value was 73%, the “KB 2° antibody cell killing EC50” value turned out to be 0.079 nM and the “KB 2° antibody cell killing Span” value worked out at 96%.

Take B5: the “Igrov 2° antibody cell killing EC50” value was 0.035 nM, the “Igrov 2° antibody cell killing Span” value turned out to be 72%, the “KB 2° antibody cell killing EC50” value came out at 0.074 nM and the “KB 2° antibody cell killing Span” value came out at 93%.

Turning to B6, the “Igrov 2° antibody cell killing EC50” value worked out at 0.04 nM, the “Igrov 2° antibody cell killing Span” value was 72%, the “KB 2° antibody cell killing EC50” value was determined as 0.065 nM and the “KB 2° antibody cell killing Span” value came to 94%.

As for B7, the “Igrov 2° antibody cell killing EC50” value turned out to be 0.023 nM, the “Igrov 2° antibody cell killing Span” value was determined as 68% and the “KB 2° antibody cell killing Span” value came to 90%.

On to B8, for which the “Igrov 2° antibody cell killing EC50” value was 0.015 nM, the “Igrov 2° antibody cell killing Span” value was 64%, the “KB 2° antibody cell killing EC50” value was 0.052 nM and the “KB 2° antibody cell killing Span” value is 92%.

Take B9: the “Igrov 2° antibody cell killing EC50” value came out at 0.026 nM, the “Igrov 2° antibody cell killing Span” value was determined as 74%, the “KB 2° antibody cell killing EC50” value was determined as 0.058 nM and the “KB 2° antibody cell killing Span” value stood at 93%.

Take B10: the “Igrov 2° antibody cell killing EC50” value turned out to be 0.031 nM, the “Igrov 2° antibody cell killing Span” value is 82%, the “KB 2° antibody cell killing EC50” value was 0.064 nM and the “KB 2° antibody cell killing Span” value was 95%.

With B11, the “Igrov 2° antibody cell killing EC50” value worked out at 0.028 nM, the “Igrov 2° antibody cell killing Span” value stood at 66%, the “KB 2° antibody cell killing EC50” value worked out at 0.05 nM and the “KB 2° antibody cell killing Span” value is 94%.

On to B12, for which the “Igrov 2° antibody cell killing EC50” value was determined as 0.018 nM, the “Igrov 2° antibody cell killing Span” value came out at 70%, the “KB 2° antibody cell killing EC50” value was found to be 0.035 nM and the “KB 2° antibody cell killing Span” value came to 94%.

With B13, the “Igrov 2° antibody cell killing EC50” value was determined as 0.027 nM, the “Igrov 2° antibody cell killing Span” value worked out at 75%, the “KB 2° antibody cell killing EC50” value is 0.033 nM and the “KB 2° antibody cell killing Span” value was found to be 96%.

Regarding B14, the “Igrov 2° antibody cell killing EC50” value came out at 0.027 nM, the “Igrov 2° antibody cell killing Span” value amounted to 74%, the “KB 2° antibody cell killing EC50” value was 0.073 nM and the “KB 2° antibody cell killing Span” value stood at 97%.

For the molecule B15, the “Igrov 2° antibody cell killing Span” value worked out at 71%, the “KB 2° antibody cell killing EC50” value worked out at 0.04 nM and the “KB 2° antibody cell killing Span” value is 97%.

B16: the “Igrov 2° antibody cell killing EC50” value was determined as 0.022 nM, the “Igrov 2° antibody cell killing Span” value turned out to be 72%, the “KB 2° antibody cell killing EC50” value came out at 0.058 nM and the “KB 2° antibody cell killing Span” value is 95%.

For the molecule B17, the “Igrov 2° antibody cell killing EC50” value amounted to 0.029 nM, the “Igrov 2° antibody cell killing Span” value turned out to be 68%, the “KB 2° antibody cell killing EC50” value stood at 0.062 nM and the “KB 2° antibody cell killing Span” value was found to be 95%.

As to B18, the “Igrov 2° antibody cell killing EC50” value stood at 0.021 nM, the “Igrov 2° antibody cell killing Span” value turned out to be 62%, the “KB 2° antibody cell killing EC50” value amounted to 0.073 nM and the “KB 2° antibody cell killing Span” value turned out to be 92%.

Turning to B19, the “Igrov 2° antibody cell killing EC50” value turned out to be 0.013 nM, the “Igrov 2° antibody cell killing Span” value amounted to 67%, the “KB 2° antibody cell killing EC50” value is 0.065 nM and the “KB 2° antibody cell killing Span” value stood at 93%.

With B20, the “Igrov 2° antibody cell killing EC50” value came to 0.013 nM, the “Igrov 2° antibody cell killing Span” value stood at 65%, the “KB 2° antibody cell killing EC50” value came out at 0.039 nM and the “KB 2° antibody cell killing Span” value stood at 93%.

Consider B21, for which the “Igrov 2° antibody cell killing Span” value worked out at 72%, the “KB 2° antibody cell killing EC50” value is 0.046 nM and the “KB 2° antibody cell killing Span” value was determined as 93%.

Take B22: the “Igrov 2° antibody cell killing EC50” value is 0.015 nM, the “Igrov 2° antibody cell killing Span” value is 71%, the “KB 2° antibody cell killing EC50” value stood at 0.064 nM and the “KB 2° antibody cell killing Span” value is 94%.
